Data reported in US7001892B1, “Pharmaceutical materials and methods for their preparation and use” (Purdue Research Foundation, priority 1999, dated 2006).
Read-outs that look alike come from different tables or passages of the source.

How the values were obtained:
[1] = cited from earlier work
[2] = cited from earlier work; for storage time after reconstitution: reconstituted with 0.9% benzyl alcohol
[3] = Level of inclusion of guest protein/peptide in host crystals (labeled-insulin/lactose crystals dissolved in PBS and analyzed by HPLC); format: physicochemical; details: rhodamine-labeled glucagon in α-lactose monohydrate crystals
Procedure: To investigate the potential for incorporation of a biopharmaceutical into crystals of biocompatible excipients, studies were conducted using rhodamine-labeled glandular glucagon and lactose. As in the previous studies, the rhodamine label was used to facilitate the visualization of glucagon in the host crystals. Typical crystal growth conditions involved the addition of 5 volumes of a supersaturated solution of deionized α-lactose monohydrate to 1 volume of an approximately 1.5 mg/mL (approximately 300 to 400 μmole) of rhodamine-labeled glucagon in purified water. The mixed solution was allowed to stand at room temperature in a 24-well plate.

[4] = vs. 2% in placebo; cited from earlier work

Molecule: Actimmune
- activity ([1]; interferon gamma-1b): dimeric form in solution, activity or 30 million units/mg.

Molecule: Activase
- time diluted solution can be held ([2]; 1 mg/mL solution diluted 1:1 with 0.9% NaCl or D5W, room temperature): 8 h
- effect of preservatives on the product ([2]; preserved water or addition of preservatives): precipitation
- activity ([1]; T-PA glycoprotein): 580,000 IU/mg.

Molecule: Protropin
- storage time after reconstitution ([2]; refrigerated temperatures): stored at refrigerated temperature, the reconstituted product is good for 14 days at refrigerated

Molecule: rhodamine-labeled glucagon: glandular glucagon carrying a rhodamine label to visualize it in the host crystals
- level of inclusion [3]: approximately 0.1 % (w/w)

Molecule: Leukine
- storage time after reconstitution ([2]; refrigerated temperatures): < 20 days
- reconstituted solution stable for ([2]; reconstituted with sterile water, refrigerated temperatures): < 6 h
- specific activity ([1]; GM-CSF): Additional Information: Specific activity is 5 × 10^7 colony forming units per mg protein. Sargramostim

B1: Actimmune (protein, UniProt P01579 24-161, looked up)
Interferon gamma: QDPYVKEAENLKKYFNAGHSDVADNGTLFLGILKNWKEESDRKIMQSQIVSFYFKLFKNFKDDQSIQKSVETIKEDMNVKFFNSNKKKRDDFEKLTNYSVTDLNVQRKAIHELIQVMAELSPAAKTGKRKRSQMLFRG
modifications: interferon gamma-1b
- injection site irritation [4]: Additional Information: 14% injection site irritation vs. 2% in placebo. Cost $140 for 50 μg.
